According to patent publication US20200140851A1 (Scripps Research, published 2020):

Target: T1, mouse vimentin (VIM from wild-type C57BL/6J mouse bone marrow lysates) (mouse, UniProt P20152 2-466)
T1 construct: Endogenous protein in bone marrow lysate, denatured for SDS/PAGE and Western blot
Assay: Western blot of bone marrow lysate
Experimental: To identify the protein recognized by the B1 antibody, antibodies were produced recombinantly in Expi293F cells. Purified B1 antibody (at a concentration of about 5-10 μg/ml) was incubated with human CD34⁺ cells, and immune complexes from cellular lysates were captured on a protein A/G column. Proteins that reacted with the antibody were identified by silver staining of SDS gels and their identity determined by mass spectrometry (MS). Three candidate proteins were identified above the background threshold (FIG. 5A). Vimentin (VIM) was one of the top hits and was confirmed to be B1 target antigen of B1 Ab by Western blotting. […] Also, VIM expression was found in human CD34⁺ cells by immunofluorescence cytochemistry using B1 or commercial VIM antibodies (FIG. 5C). The amino acid sequence identity between mouse and human VIM is greater than 97%.
Western blot: Cells were washed with PBS and then lysed in lysis buffer (50 mM Hlepes, pH 7.2, 150 mM NaCl, 50 mM NaF, 1 mM Na3VO₄, 10% glycerol, 1% Triton X-100). The lysates were then centrifuged at 12,000×g for 15 min at 4° C. The proteins were denatured in Laemmli sample buffer (5 min at 95° C.), separated by SDS/PAGE, and transferred to nitrocellulose membranes using the iBlot blotting system (Invitrogen). […]

T1 sequence (P20152 2-466 limits assumed): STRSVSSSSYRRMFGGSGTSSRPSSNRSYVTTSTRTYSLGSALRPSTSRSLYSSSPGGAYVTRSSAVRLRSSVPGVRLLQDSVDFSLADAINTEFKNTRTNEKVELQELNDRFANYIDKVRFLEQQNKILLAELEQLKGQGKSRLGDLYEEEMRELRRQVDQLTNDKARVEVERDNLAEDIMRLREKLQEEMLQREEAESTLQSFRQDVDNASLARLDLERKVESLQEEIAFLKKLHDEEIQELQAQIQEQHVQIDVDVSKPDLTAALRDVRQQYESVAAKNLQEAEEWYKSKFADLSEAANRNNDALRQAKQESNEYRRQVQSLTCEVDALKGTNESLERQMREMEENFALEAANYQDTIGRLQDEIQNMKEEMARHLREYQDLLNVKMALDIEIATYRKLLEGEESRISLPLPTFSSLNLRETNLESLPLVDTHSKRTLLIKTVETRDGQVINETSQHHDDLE

binding result: binds
B1: B1 antibody (Fc fusion)
scFv: MAQVQLLESGGGLVQPGGSLTLACAASGFNFNNYNMNWVRQAPGRGLEWVAFISSAADTVHYADSVEGRFTISRDNAKNSLYLHMNSLRDEDTAVYYCARQLLYWGQGTLVTVSSGGGGGSQAVLTQPSSLSASPGASVSLTCTLRSGINVGAYRIYWYQQKPGSPPQFLLRYKSDSDKQQGSGVPSRFSGSRDASANAGILLISWLRSEDEADYYCAIWHSSAWVFGGGTQLTVLG
notes: also called B1 Ab; B1Ab; not shown: Fc tag of the purified ScFv-Fc fusion protein
